Target: SARS-CoV-2 spike receptor-binding domain (RBD), recombinant, produced in house (SARS-CoV-2) (UniProt P0DTC2)
Test: SEC

## SARS-CoV-2 spike receptor-binding domain (RBD), recombinant, produced in house (from UniProt P0DTC2) (domain or fragment)
  stoichiometry N: 3

Source: article PMC8393265
